The target in series [1] is M. thermautotrophicus MCM (MTH1770) (Methanothermobacter thermautotrophicus, UniProt O27798). The conditions noted are these: labelled compound; Hepes-NaOH pH 7.5, 5 mM MgCl2, 60°C.
Series [2] deals with T1, MCM beta-finger mutant (Methanothermobacter thermautotrophicus, UniProt O27798 1-666, R227A;K229A).
T1 sequence: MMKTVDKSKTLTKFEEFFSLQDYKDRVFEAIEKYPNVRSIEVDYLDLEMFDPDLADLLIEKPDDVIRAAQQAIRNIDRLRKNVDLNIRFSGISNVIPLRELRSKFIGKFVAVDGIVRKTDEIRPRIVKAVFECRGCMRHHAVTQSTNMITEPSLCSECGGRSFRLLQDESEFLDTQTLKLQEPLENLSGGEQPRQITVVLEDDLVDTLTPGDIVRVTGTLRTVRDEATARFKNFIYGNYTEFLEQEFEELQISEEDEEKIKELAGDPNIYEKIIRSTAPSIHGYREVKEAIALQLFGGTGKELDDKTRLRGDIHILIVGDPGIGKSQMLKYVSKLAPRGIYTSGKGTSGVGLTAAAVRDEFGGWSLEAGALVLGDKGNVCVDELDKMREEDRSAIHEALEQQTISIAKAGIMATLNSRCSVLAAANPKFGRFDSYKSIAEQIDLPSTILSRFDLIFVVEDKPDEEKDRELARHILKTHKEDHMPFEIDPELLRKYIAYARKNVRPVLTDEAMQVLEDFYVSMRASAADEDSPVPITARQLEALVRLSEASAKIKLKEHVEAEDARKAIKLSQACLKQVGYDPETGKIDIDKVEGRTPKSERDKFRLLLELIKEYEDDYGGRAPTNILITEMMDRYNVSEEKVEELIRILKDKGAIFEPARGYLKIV
Briefly: fluorescence anisotropy. Background: Fluorescence polarisation rises when a labelled molecule tumbles more slowly, as on binding a larger partner.

For series [3], the target named is T2, MCM E182R (Methanothermobacter thermautotrophicus, UniProt O27798 1-666, E182R).
T2 sequence: T1 sequence with E182R, A227R, A229K
Briefly: fluorescence anisotropy.

Series [4] has as its target T3, MCM P193G (Methanothermobacter thermautotrophicus, UniProt O27798 1-666, P193G).
T3 sequence: T1 sequence with P193G, A227R, A229K
Kind of series: fluorescence anisotropy.

Substitutions are numbered along the chain they refer to.

Chain of M. thermautotrophicus MCM (MTH1770) (O27798 1-666): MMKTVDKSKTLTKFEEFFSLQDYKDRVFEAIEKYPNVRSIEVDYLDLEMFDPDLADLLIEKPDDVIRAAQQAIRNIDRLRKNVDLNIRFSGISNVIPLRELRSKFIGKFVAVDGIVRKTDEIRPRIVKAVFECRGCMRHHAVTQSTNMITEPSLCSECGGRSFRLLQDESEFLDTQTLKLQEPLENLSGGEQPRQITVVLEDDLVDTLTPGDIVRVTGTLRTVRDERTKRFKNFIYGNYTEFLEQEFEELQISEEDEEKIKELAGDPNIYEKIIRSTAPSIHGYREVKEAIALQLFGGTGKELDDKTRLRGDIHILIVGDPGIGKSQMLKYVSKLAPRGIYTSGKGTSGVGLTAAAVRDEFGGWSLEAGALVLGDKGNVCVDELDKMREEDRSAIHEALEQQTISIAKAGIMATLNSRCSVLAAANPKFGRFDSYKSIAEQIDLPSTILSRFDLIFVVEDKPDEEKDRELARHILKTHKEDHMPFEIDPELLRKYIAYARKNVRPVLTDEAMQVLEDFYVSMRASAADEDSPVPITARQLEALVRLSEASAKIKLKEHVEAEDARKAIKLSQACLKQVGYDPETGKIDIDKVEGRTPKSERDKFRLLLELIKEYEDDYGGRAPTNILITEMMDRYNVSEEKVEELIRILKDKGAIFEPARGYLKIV

On to `Nc1ncnc2c1ncn2[C@@H]1O[C@H](COP(=O)(O)OP(=O)(O)OP(=O)(O)O)[C@@H](O)[C@H]1O` [ATP], for which the “% ATP cross-linked relative to wild type” value in series [1] was “UV crosslinking of ATP to the various MCM proteins was performed”.
Turning to CGCAGATAACAGTTGTCCTGGAGAACGACCTGGTTGACACCCTCACACCC (ssDNA) [50-mer Cy3-ssDNA], the binding result is given as “no binding” in series [2], “binds” in series [3] and “binds” in series [4].

The values are drawn from article PMC2275104 (Nucleic Acids Research, 2008).
